The target of assay [1] is T1, yeast Mcm4 (subunit of CMG) (budding yeast, UniProt P30665 1-933).
T1 sequence: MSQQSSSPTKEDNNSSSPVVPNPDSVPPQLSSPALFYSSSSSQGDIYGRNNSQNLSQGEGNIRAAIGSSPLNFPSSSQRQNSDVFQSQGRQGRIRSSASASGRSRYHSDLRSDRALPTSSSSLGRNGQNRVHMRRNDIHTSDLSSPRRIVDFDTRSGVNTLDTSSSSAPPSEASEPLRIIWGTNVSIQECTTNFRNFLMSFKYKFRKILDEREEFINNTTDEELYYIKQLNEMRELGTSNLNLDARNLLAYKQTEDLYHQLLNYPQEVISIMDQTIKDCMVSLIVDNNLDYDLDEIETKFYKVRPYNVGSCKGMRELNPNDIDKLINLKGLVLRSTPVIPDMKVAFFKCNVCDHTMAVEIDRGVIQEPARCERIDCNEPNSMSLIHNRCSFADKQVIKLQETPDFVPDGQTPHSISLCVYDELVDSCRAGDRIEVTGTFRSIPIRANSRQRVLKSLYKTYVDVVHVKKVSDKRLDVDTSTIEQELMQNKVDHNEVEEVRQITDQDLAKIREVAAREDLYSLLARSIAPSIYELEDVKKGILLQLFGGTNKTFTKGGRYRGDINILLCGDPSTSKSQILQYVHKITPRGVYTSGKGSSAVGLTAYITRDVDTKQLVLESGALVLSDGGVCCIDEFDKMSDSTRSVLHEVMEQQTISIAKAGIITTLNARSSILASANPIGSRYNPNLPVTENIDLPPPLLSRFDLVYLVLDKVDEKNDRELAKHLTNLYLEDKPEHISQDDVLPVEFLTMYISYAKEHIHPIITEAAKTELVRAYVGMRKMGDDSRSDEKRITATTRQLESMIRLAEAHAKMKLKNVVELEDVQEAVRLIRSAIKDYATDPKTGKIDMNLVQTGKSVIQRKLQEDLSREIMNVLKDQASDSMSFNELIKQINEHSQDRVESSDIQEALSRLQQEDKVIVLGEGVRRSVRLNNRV
The assay is described as follows: cryo-EM structure.

The target in assay [2] is yeast Mcm3 (subunit of CMG) (budding yeast, UniProt P24279 1-971). Briefly: cryo-EM structure.
yeast Mcm3 (subunit of CMG), sequence (P24279 whole entry): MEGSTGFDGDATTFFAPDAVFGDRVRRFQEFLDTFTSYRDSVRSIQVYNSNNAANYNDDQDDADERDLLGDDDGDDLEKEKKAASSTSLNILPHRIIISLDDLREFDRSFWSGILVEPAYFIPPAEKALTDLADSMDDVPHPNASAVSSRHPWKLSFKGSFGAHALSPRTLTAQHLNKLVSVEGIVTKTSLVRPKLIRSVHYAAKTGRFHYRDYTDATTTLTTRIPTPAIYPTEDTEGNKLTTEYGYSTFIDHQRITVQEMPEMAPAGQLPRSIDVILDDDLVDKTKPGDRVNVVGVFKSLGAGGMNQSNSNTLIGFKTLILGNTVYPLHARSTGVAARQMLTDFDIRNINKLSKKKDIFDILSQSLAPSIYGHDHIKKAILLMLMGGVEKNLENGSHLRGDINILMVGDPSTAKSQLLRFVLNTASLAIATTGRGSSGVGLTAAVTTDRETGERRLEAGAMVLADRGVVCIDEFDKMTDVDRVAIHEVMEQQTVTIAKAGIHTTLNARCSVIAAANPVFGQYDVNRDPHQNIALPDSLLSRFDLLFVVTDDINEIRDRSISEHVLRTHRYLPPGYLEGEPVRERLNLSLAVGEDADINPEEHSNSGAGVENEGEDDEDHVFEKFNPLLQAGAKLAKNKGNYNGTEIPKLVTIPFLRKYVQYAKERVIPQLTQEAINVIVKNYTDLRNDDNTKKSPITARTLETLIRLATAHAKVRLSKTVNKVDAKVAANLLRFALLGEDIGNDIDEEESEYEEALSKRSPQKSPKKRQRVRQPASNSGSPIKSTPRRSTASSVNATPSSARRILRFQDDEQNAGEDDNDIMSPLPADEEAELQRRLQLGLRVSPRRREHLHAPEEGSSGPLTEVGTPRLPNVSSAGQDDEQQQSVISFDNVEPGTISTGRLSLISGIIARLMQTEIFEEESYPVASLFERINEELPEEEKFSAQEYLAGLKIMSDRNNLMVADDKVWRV

B1: yeast Mcm7 (subunit of CMG) (natural protein)
chain: MSAALPSIQLPVDYNNLFNEITDFLVTFKQDTLSSDATRNENEDENLDAENIEQHLLEKGPKYMAMLQKVANRELNSVIIDLDDILQYQNEKFLQGTQADDLVSAIQQNANHFTELFCRAIDNNMPLPTKEIDYKDDVLDVILNQRRLRNERMLSDRTNEIRSENLMDTTMDPPSSMNDALREVVEDETELFPPNLTRRYFLYFKPLSQNCARRYRKKAISSKPLSVRQIKGDFLGQLITVRGIITRVSDVKPAVEVIAYTCDQCGYEVFQEVNSRTFTPLSECTSEECSQNQTKGQLFMSTRASKFSAFQECKIQELSQQVPVGHIPRSLNIHVNGTLVRSLSPGDIVDVTGIFLPAPYTGFKALKAGLLTETYLEAQFVRQHKKKFASFSLTSDVEERVMELITSGDVYNRLAKSIAPEIYGNLDVKKALLLLLVGGVDKRVGDGMKIRGDINVCLMGDPGVAKSQLLKAICKISPRGVYTTGKGSSGVGLTAAVMKDPVTDEMILEGGALVLADNGICCIDEFDKMDESDRTAIHEVMEQQTISISKAGINTTLNARTSILAAANPLYGRYNPRLSPLDNINLPAALLSRFDILFLMLDIPSRDDDEKLAEHVTYVHMHNKQPDLDFTPVEPSKMREYIAYAKTKRPVMSEAVNDYVVQAYIRLRQDSKREMDSKFSFGQATPRTLLGIIRLSQALAKLRLADMVDIDDVEEALRLVRVSKESLYQETNKSKEDESPTTKIFTIIKKMLQETGKNTLSYENIVKTVRLRGFTMLQLSNCIQEYSYLNVWHLINEGNTLKFVDDGTMDTDQEDSLVSTPKLAPQTTASANVSAQDSDIDLQDA
Take B1: the binding result in assay [1] and in assay [2] was “binds” throughout.

Values taken from doi:10.1101/2024.10.02.616340 (bioRxiv, 2024).
